Patent US20210087288A1

Tests used:
[1] = target: Cyno TfR extracellular domain (analogous ecd construct) (cynomolgus monkey); experiment: SPR, bispecific antibody
[2] = target: Human TfR extracellular domain (ecd) containing an N-terminal His tag (human) (UniProt P02786); experiment: SPR, bispecific antibody
Chain of Human TfR extracellular domain (ecd) containing an N-terminal His tag (human) (P02786 89-760 G142S): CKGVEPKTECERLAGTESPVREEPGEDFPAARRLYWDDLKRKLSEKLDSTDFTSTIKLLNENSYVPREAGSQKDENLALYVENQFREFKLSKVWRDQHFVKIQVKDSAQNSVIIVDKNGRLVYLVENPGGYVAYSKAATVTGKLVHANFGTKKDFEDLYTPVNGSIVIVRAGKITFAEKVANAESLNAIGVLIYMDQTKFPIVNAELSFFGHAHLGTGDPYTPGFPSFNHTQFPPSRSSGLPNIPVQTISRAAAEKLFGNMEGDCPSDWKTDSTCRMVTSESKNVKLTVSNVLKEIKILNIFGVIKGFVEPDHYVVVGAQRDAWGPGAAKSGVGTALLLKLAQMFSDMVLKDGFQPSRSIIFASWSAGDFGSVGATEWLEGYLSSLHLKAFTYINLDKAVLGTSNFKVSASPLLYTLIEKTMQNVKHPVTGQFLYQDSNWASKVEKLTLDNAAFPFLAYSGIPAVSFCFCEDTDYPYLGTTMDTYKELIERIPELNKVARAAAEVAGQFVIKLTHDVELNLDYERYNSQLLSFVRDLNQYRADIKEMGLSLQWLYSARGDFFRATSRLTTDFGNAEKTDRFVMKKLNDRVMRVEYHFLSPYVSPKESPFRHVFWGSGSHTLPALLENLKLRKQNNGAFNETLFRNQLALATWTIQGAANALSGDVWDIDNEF

Chain of Cyno TfR extracellular domain (analogous ecd construct) (cynomolgus monkey) (Q5RDH6 other isoform, or with tags, fused parts or gaps): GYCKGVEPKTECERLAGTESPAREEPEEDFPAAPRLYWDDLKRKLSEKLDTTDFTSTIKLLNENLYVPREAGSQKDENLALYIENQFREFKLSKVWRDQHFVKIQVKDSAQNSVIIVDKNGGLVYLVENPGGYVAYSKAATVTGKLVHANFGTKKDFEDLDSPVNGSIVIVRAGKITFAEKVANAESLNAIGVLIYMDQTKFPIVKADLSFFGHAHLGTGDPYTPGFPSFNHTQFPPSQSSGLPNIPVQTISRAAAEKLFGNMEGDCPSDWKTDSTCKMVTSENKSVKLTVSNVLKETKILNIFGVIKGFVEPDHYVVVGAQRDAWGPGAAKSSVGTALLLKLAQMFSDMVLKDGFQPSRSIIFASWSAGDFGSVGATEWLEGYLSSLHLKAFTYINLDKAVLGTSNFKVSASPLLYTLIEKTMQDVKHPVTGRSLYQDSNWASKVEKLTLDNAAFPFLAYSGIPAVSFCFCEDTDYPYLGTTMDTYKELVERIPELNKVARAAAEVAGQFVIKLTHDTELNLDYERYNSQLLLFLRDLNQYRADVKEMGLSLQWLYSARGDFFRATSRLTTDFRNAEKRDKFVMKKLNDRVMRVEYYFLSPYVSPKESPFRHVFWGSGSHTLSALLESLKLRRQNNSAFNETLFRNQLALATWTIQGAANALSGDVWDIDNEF

Kd [1]: 143 nM
Kd [2]: 24 nM
B1: Anti-TfR^53A/BACE1 bispecific antibody, human IgG1 N297G (bispecific antibody, part only; not given: anti-BACE1 half-antibody, V domains shown, not shown: another chain or arm of the molecule; a dimerising Fc or GST; small tags and cut ends)
VH: EVQLVQSGAEVKKPGASVKVSCKASGYTFTSYWMHWVRQAPGQRLEWIGEINPANGRTNYIEKFKSRATLTVDKSASTAYMELSSLRSEDTAVYYCARGTRAYHYWGQGTMVTVSS
VL: DIQMTQSPSSLSASVGDRVTITCRASDNLYSNLAWYQQKPGKSPKLLVYDATNLADGVPSRFSGSGSGTDYTLTISSLQPEDFATYYCQHFWGTPLTFGQGTKVEIK
